Measurements published in US6875851B1 (priority 1999, dated 2005).

What was measured:
PTP-A [1] = format: biochemical, P. gingivalis
[2] = pH optimum and stability of PTP-A by amidolytic activity assay; format: physicochemical, P. gingivalis; details: 0.2 M HEPES
Experimental: Enzyme Activity Assays—Routinely, the tripeptidyl peptidase amidolytic activity was measured with H-Ala-Phe-Pro-pNA (1 mM) in 0.2 M HEPES (N-2-hydroxyethylpeperazine,N′-2-ethansulfonic acid), pH 7.5 at 37° C. The concentration of enzyme was 0.1 nM to 1 nM. The assay was performed in a total volume of 0.2 ml on microplates, and the initial turnover rate was recorded at 405 nm using a microplate reader (Spectramax Molecular Devices, Sunnyvale, Calif.). In inhibition studies, the enzyme was first preincubated with inhibitor for 15 min at 37° C., substrate added, and residual activity recorded after 5 minutes to 30 minutes. H-Gly-Pro-pNA, Z-Ala-Pro-pNA, Z-Gly-Pro-pNA and H-Pro-pNA (1 mM final concentration) were assayed in the same manner.
PTP-A activity was not affected by class specific synthetic inhibitors of cysteine or metalloproteinases (Table 2).

PTP-A [3] = format: biochemical, P. gingivalis; remark: listed apart in the source

B1: human cystatin C: protein substrate, provided by Dr. Magnus Abrahamson (protein)
chain: SSPGKPPRLVGGPMDASVEEEGVRRALDFAVGEYNKASNDMYHSRALQVVRARKQIVAGVNYFLDVELGRTTCTKTQPNLDNCPFHDQPHLKRKAFCSFQIYAVPWQGTMTLSKSTCQDA
Cleavage of protein by PTP-A (in words) (PTP-A [1]): able to cleave a tripeptide

B2: PTP-A: prolyl-tripeptidyl peptidase A (SEQ ID NO:30) from P. gingivalis (protein, listed as Porphyromonas gingivalis)
chain: MKKTIFQQLFLSVCALTVALPCSAQSPETSGKEFTLEQLMPGGKEFYNFYPEYVVGLQWMGDNYVFIEGDDLVFNKANGKSAQTTRFSAADLNALMPEGCKFQTTDAFPSFRTLDAGRGLVVLFTQGGLVGFDMLARKVTYLFDTNEETASLDFSPVGDRVAYVRNHNLYIARGGKLGEGMSRAIAVTIDGTETLVYGQAVHQREFGIEKGTFWSPKGSCLAFYRMDQSMVKPTPIVDYHPLEAESKPLYYPMAGTPSHHVTVGIYHLATGKTVYLQTGEPKEKFLTNLSWSPDENILYVAEVNRAQNECKVNAYDAETGRFVRTLFVETDKHYVEPLHPLTFLPGSNNQFIWQSRRDGWNHLYLYDTTGRLIRQVTKGEWEVTNFAGFDPKGTRLYFESTEASPLERHFYCIDIKGGKTKDLTPESGMHRTQLSPDGSAIIDIFQSPTVPRKVTVTNIGKGSHTLLEAKNPDTGYAMPEIRTGTIMAADGQTPLYYKLTMPLHFDPAKKYPVIVYVYGGPHAQLVTKTWRSSVGGWDIYMAQKGYAVFTVDSRGSANRGAAFEQVIHRRLGQTEMADQMCGVDFLKSQSWVDADRIGVHGWSYGGFMTTNLMLTHGDVFKVGVAGGPVIDWNRYEIMYGERYFDAPQENPEGYDAANLLKRAGDLKGRLMLIHGAIDPVVVWQHSLLFLDACVKARTYPDYYVYPSHEHNVMGPDRVHLYETITRYFTDHL
Stability (time stable) ([2]; pH 7.6, 25° C.): at least 12 hours | Stability (time stable) ([2]; pH 7.6, 37° C.): at least 12 hours

B3: α1-antichymotrypsin: Human plasma inhibitor (protein)
chain: HPNSPLDEENLTQENQDRGTHVDLGLASANVDFAFSLYKQLVLKAPDKNVIFSPLSISTALAFLSLGAHNTTLTEILKGLKFNLTETSEAEIHQSFQHLLRTLNQSSDELQLSMGNAMFVKEQLSLLDRFTEDAKRLYGSEAFATDFQDSAAAKKLINDYVKNGTRGKITDLIKDLDSQTMMVLVNYIFFKAKWEMPFDPQDTHQSRFYLSKKKWVMVPMMSLHHLTIPYFRDEELSCTVVELKYTGNASALFILPDQDKMEEVEAMLLPETLKRWRDSLEFREIGELYLPKFSISRDYNLNDILLQLGIEEAFTSKADLSGITGARNLAVSQVVHKAVLDVFEEGTEASAATAVKITLLSALVETRTIVRFNRPFLMIIVPTDTQNIFFMSKVTNPKQA
Cleavage of protein by PTP-A (in words) (PTP-A [1]): nor were they cleaved by PTP-A | Effect on PTP-A amidolytic activity (in words) (PTP-A [3]): did not affect the enzyme activity

B4: α2-macroglobulin: Human plasma inhibitor (protein)
chain: SVSGKPQYMVLVPSLLHTETTEKGCVLLSYLNETVTVSASLESVRGNRSLFTDLEAENDVLHCVAFAVPKSSSNEEVMFLTVQVKGPTQEFKKRTTVMVKNEDSLVFVQTDKSIYKPGQTVKFRVVSMDENFHPLNELIPLVYIQDPKGNRIAQWQSFQLEGGLKQFSFPLSSEPFQGSYKVVVQKKSGGRTEHPFTVEEFVLPKFEVQVTVPKIITILEEEMNVSVCGLYTYGKPVPGHVTVSICRKYSDASDCHGEDSQAFCEKFSGQLNSHGCFYQQVKTKVFQLKRKEYEMKLHTEAQIQEEGTVVELTGRQSSEITRTITKLSFVKVDSHFRQGIPFFGQVRLVDGKGVPIPNKVIFIRGNEANYYSNATTDEHGLVQFSINTTNVMGTSLTVRVNYKDRSPCYGYQWVSEEHEEAHHTAYLVFSPSKSFVHLEPMSHELPCGHTQTVQAHYILNGGTLLGLKKLSFYYLIMAKGGIVRTGTHGLLVKQEDMKGHFSISIPVKSDIAPVARLLIYAVLPTGDVIGDSAKYDVENCLANKVDLSFSPSQSLPASHAHLRVTAAPQSVCALRAVDQSVLLMKPDAELSASSVYNLLPEKDLTGFPGPLNDQDNEDCINRHNVYINGITYTPVSSTNEKDMYSFLEDMGLKAFTNSKIRKPKMCPQLQQYEMHGPEGLRVGFYESDVMGRGHARLVHVEEPHTETVRKYFPETWIWDLVVVNSAGVAEVGVTVPDTITEWKAGAFCLSEDAGLGISSTASLRAFQPFFVELTMPYSVIRGEAFTLKATVLNYLPKCIRVSVQLEASPAFLAVPVEKEQAPHCICANGRQTVSWAVTPKSLGNVNFTVSAEALESQELCGTEVPSVPEHGRKDTVIKPLLVEPEGLEKETTFNSLLCPSGGEVSEELSLKLPPNVVEESARASVSVLGDILGSAMQNTQNLLQMPYGCGEQNMVLFAPNIYVLDYLNETQQLTPEIKSKAIGYLNTGYQRQLNYKHYDGSYSTFGERYGRNQGNTWLTAFVLKTFAQARAYIFIDEAHITQALIWLSQRQKDNGCFRSSGSLLNNAIKGGVEDEVTLSAYITIALLEIPLTVTHPVVRNALFCLESAWKTAQEGDHGSHVYTKALLAYAFALAGNQDKRKEVLKSLNEEAVKKDNSVHWERPQKPKAPVGHFYEPQAPSAEVEMTSYVLLAYLTAQPAPTSEDLTSATNIVKWITKQQNAQGGFSSTQDTVVALHALSKYGAATFTRTGKAAQVTIQSSGTFSSKFQVDNNNRLLLQQVSLPELPGEYSMKVTGEGCVYLQTSLKYNILPEKEEFPFALGVQTLPQTCDEPKAHTSFQISLSVSYTGSRSASNMAIVDVKMVSGFIPLKPTVKMLERSNHVSRTEVSSNHVLIYLDKVSNQTLSLFFTVLQDVPVRDLKPAIVKVYDYYETDEFAIAEYNAPCSKDLGNA
Cleavage of protein by PTP-A (in words) (PTP-A [1]): nor were they cleaved by PTP-A | Effect on PTP-A amidolytic activity (in words) (PTP-A [3]): did not affect the enzyme activity
